Experimental data taken from the supplement of paper PMC10201428.
± gives the standard deviation of the averaged measurements.

B1: library; a variant is named by its letters at N, in order (parent)
chain: ACATTTGTTGATACAACCATAAAATGATAATTACACCCATAAATTGATAATTATCACACCCANNNNNNNNNNNNNNCTCTGATCATAGTCAGACCAACATTGCTACGACCCGTATTCGCACCGACAC

Legend:
[1] = variants of: B1; experiment: relative integration efficiency (T-RL orientation) vs wild-type transposon end (log2 (normalized fold change)); transposon end mutated: right end (5 bp flank + 75 bp right end); higher = more efficient transposition; details: with VchCAST RNA-guided transposition machinery (E. coli BL21(DE3) host, lacZ target)
Procedure, shortened: (§1)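 Co-transformation of E. coli BL21(DE3) combined a pUC57 mini-transposon donor, holding barcoded pools of 1549 left-end or 1849 right-end variants, with a T7-driven plasmid encoding a CRISPR array, tniQ-cas8-cas7-cas6 and tnsA-tnsB-tnsC. After plating with 0.1 mM IPTG at 37°C for 18 h, input plasmids and genomic integration junctions were PCR-amplified and Illumina-sequenced across two biological output replicates, with four reference barcodes. Relative integration efficiency is the normalised, log-transformed output/input barcode fold change.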

[2] = variants of: B1; experiment: relative integration efficiency (T-LR orientation) vs wild-type transposon end (log2 (normalized fold change)); transposon end mutated: right end (5 bp flank + 75 bp right end); higher = more efficient transposition; details: with VchCAST RNA-guided transposition machinery (E. coli BL21(DE3) host, lacZ target)
Procedure, shortened: as §1

Variant	relative integration efficiency (log2) [1]	relative integration efficiency (log2) [2]
ACATTTGTTGATACAACCATAAAATGATAATTACACCCATAAATTGATAATTATCACACCCATAAATTGATATTGGCTCTGATCATAGTCAGACCAACATTGCTACGACCCGTATTCGCACCGACAC [TAAATTGATATTGG]	0.00187 ± 0.0011	-0.155 ± 0.042
ACATTTGTTGATACAACCATAAAATGATAATTACACCCATAAATTGATAATTATCACACCCATAAATTGATATTGCCTCCGATCATAGTCAGACCAACATTGCTACGACCCGTATTCGCACCGACAC [TAAATTGATATTGC T80C]	-0.0687 ± 0.062	-0.0985 ± 0.41
ACATTTGTTGATACAACCATAAAATGATAATTACACCCATAAATTGATAATTATCACACCCATAAATTGATATTGCCTCGGATCATAGTCAGACCAACATTGCTACGACCCGTATTCGCACCGACAC [TAAATTGATATTGC T80G]	0.183 ± 0.047	0.0082 ± 0.15
ACATTTGTTGATACAACCATAAAATGATAATTACACCCATAAATTGATAATTATCACACCCATAAATTGATATTGCCTCAGATCATAGTCAGACCAACATTGCTACGACCCGTATTCGCACCGACAC [TAAATTGATATTGC T80A]	0.0921 ± 0.03	0.072 ± 0.48
ACATTTGTTGATACAACCATAAAATGATAATTACACCCATAAATTGACAATTATCACACCCATAAATTGATATTGCCTCTGATCATAGTCAGACCAACATTGCTACGACCCGTATTCGCACCGACAC [TAAATTGATATTGC T48C]	-0.4021 ± 0.003	-0.401 ± 0.25
ACATTTGTTGATACAACCATAAAATGATAATTACACCCATAAATTGAAAATTATCACACCCATAAATTGATATTGCCTCTGATCATAGTCAGACCAACATTGCTACGACCCGTATTCGCACCGACAC [TAAATTGATATTGC T48A]	0.196 ± 0.2	0.629 ± 0.21
ACATTTGTTGATACAACCATAAAATGATAATTACACCCATAAATTGAGAATTATCACACCCATAAATTGATATTGCCTCTGATCATAGTCAGACCAACATTGCTACGACCCGTATTCGCACCGACAC [TAAATTGATATTGC T48G]	-0.12 ± 0.078	-0.379 ± 0.13
ACATTTGTTGATACAACCATAAAATGATAATTACACCCATAAATCGATAATTATCACACCCATAAATTGATATTGCCTCTGATCATAGTCAGACCAACATTGCTACGACCCGTATTCGCACCGACAC [TAAATTGATATTGC T45C]	-0.0459 ± 0.091	-0.285 ± 0.21
ACATTTGTTGATACAACCATAAAATGATAATTACACCCATAAATAGATAATTATCACACCCATAAATTGATATTGCCTCTGATCATAGTCAGACCAACATTGCTACGACCCGTATTCGCACCGACAC [TAAATTGATATTGC T45A]	-0.307 ± 0.056	-0.351 ± 0.41
ACATTTGTTGATACAACCATAAAATGATAATTACACCCATAAATGGATAATTATCACACCCATAAATTGATATTGCCTCTGATCATAGTCAGACCAACATTGCTACGACCCGTATTCGCACCGACAC [TAAATTGATATTGC T45G]	-0.479 ± 0.082	-0.522 ± 0.1
ACATTTGTTGATACAACCATAAAATGATAATTACACCCATAAATTGATAATCATCACACCCATAAATTGATATTGCCTCTGATCATAGTCAGACCAACATTGCTACGACCCGTATTCGCACCGACAC [TAAATTGATATTGC T52C]	-0.34 ± 0.15	-0.286 ± 0.39
ACATTTGTTGATACAACCATAAAATGATAATTACACCCATAAATTGATAATGATCACACCCATAAATTGATATTGCCTCTGATCATAGTCAGACCAACATTGCTACGACCCGTATTCGCACCGACAC [TAAATTGATATTGC T52G]	-0.506 ± 0.15	-0.16 ± 0.37
ACATTTGTTGATACAACCATAAAATGATAATTACACCCATAAATTGATAATAATCACACCCATAAATTGATATTGCCTCTGATCATAGTCAGACCAACATTGCTACGACCCGTATTCGCACCGACAC [TAAATTGATATTGC T52A]	-0.149 ± 0.095	0.276 ± 0.4
ACATTTGTTGATACAACCATAAAATGATAATTACACCCATAAATTGATAATTATCACACCCATAAATTGATATTGCCGCTGATCATAGTCAGACCAACATTGCTACGACCCGTATTCGCACCGACAC [TAAATTGATATTGC T78G]	0.0385 ± 0.031	0.078 ± 0.44
ACATTTGTTGATACAACCATAAAATGATAATTACACCCATAAATTGATAATTATCACACCCATAAATTGATATTGCCCCTGATCATAGTCAGACCAACATTGCTACGACCCGTATTCGCACCGACAC [TAAATTGATATTGC T78C]	-0.00404 ± 0.024	-0.0349 ± 0.43
ACATTTGTTGATACAACCATAAAATGATAATTACACCCATAAATTGATAATTATCACACCCATAAATTGATATTGCCACTGATCATAGTCAGACCAACATTGCTACGACCCGTATTCGCACCGACAC [TAAATTGATATTGC T78A]	-0.396 ± 0.15	-0.018 ± 0.18
ACATTTGTTGATACAACCATAAAATGATAATTACACCCATAAATTGATAAATATCACACCCATAAATTGATATTGCCTCTGATCATAGTCAGACCAACATTGCTACGACCCGTATTCGCACCGACAC [TAAATTGATATTGC T51A]	-0.455 ± 0.07	-0.206 ± 0.1
ACATTTGTTGATACAACCATAAAATGATAATTACACCCATAAATTGATAAGTATCACACCCATAAATTGATATTGCCTCTGATCATAGTCAGACCAACATTGCTACGACCCGTATTCGCACCGACAC [TAAATTGATATTGC T51G]	-0.507 ± 0.097	-0.118 ± 0.2
ACATTTGTTGATACAACCATAAAATGATAATTACACCCATAAATTGATAACTATCACACCCATAAATTGATATTGCCTCTGATCATAGTCAGACCAACATTGCTACGACCCGTATTCGCACCGACAC [TAAATTGATATTGC T51C]	0.0252 ± 0.18	0.0609 ± 0.14
ACATTTGTTGATACAACCATAAAATGATAATTACACCCATAAAGTGATAATTATCACACCCATAAATTGATATTGCCTCTGATCATAGTCAGACCAACATTGCTACGACCCGTATTCGCACCGACAC [TAAATTGATATTGC T44G]	-0.00517 ± 0.11	-0.385 ± 0.26
ACATTTGTTGATACAACCATAAAATGATAATTACACCCATAAATTGATAATTAACACACCCATAAATTGATATTGCCTCTGATCATAGTCAGACCAACATTGCTACGACCCGTATTCGCACCGACAC [TAAATTGATATTGC T54A]	-0.338 ± 0.15	0.141 ± 0.18
ACATTTGTTGATACAACCATAAAATGATAATTACACCCATAAATTGATAATTACCACACCCATAAATTGATATTGCCTCTGATCATAGTCAGACCAACATTGCTACGACCCGTATTCGCACCGACAC [TAAATTGATATTGC T54C]	-0.0952 ± 0.0069	-0.015 ± 0.36
ACATTTGTTGATACAACCATAAAATGATAATTACACCCATAAATTGATAATTAGCACACCCATAAATTGATATTGCCTCTGATCATAGTCAGACCAACATTGCTACGACCCGTATTCGCACCGACAC [TAAATTGATATTGC T54G]	0.0616 ± 0.064	0.247 ± 0.082
